Results as given in publication PMC9977449, “Discovery of lipid-mediated protein–protein interactions in living cells using metabolic labeling with photoactivatable clickable probes†” (Chemical Science, 2023).

Key:
[1] = molecular target: T1, FSP1-TST, myristoylation-deficient G2A mutant (UniProt Q9BRQ8 1-373, G2A); experiment: co-IP; TST-tagged protein (WT or G2A) transfected in HEK293 cells, captured on Strep-Tactin resin; blot with TRA2B or TOMM40 antibody, signal normalised to the bait's signal; details: partners not purified
T1 construct: FSP1 (ferroptosis suppressor protein 1) with G2A; also called FSP1 G2A mutant; source: HEK293, transfected, in lysate; not shown: Twin-Strep-tag, C-terminal, kept
T1 sequence (looked up): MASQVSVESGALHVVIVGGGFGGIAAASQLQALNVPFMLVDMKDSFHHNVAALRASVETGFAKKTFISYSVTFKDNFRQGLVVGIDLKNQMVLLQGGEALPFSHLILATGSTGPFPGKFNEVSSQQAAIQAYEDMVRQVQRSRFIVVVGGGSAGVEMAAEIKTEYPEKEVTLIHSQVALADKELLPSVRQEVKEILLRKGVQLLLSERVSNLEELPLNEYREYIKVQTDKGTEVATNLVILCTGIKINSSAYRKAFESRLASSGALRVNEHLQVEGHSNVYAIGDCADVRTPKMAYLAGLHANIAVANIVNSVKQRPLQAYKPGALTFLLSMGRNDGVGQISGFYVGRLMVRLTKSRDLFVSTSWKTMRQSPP

[2] = molecular target: T2, FSP1-TST, wild type, from cells under NMT inhibition (UniProt Q9BRQ8 1-373); experiment: co-IP; as a2, wild-type FSP1-TST with NMT inhibition of the cells; details: partners not purified
T2 construct: FSP1 (ferroptosis suppressor protein 1); same construct as m3; not shown: Twin-Strep-tag, C-terminal, kept
T2 sequence (looked up): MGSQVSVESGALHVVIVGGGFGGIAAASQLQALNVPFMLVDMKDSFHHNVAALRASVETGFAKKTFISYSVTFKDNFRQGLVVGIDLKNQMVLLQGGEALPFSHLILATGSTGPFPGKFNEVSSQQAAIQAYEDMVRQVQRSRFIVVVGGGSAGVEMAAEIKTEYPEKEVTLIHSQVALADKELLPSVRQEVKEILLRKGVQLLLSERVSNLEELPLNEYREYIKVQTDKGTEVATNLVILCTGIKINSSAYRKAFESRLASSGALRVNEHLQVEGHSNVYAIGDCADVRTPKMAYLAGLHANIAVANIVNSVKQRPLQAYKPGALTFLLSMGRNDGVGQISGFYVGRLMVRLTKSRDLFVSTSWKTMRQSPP

B1: TOMM40, mitochondrial protein that facilitates protein import into mitochondria (natural protein, human (endogenous in HEK293), UniProt O96008 1-361, looked up)
chain: MGNVLAASSPPAGPPPPPAPALVGLPPPPPSPPGFTLPPLGGSLGAGTSTSRSSERTPGAATASASGAAEDGACGCLPNPGTFEECHRKCKELFPIQMEGVKLTVNKGLSNHFQVNHTVALSTIGESNYHFGVTYVGTKQLSPTEAFPVLVGDMDNSGSLNAQVIHQLGPGLRSKMAIQTQQSKFVNWQVDGEYRGSDFTAAVTLGNPDVLVGSGILVAHYLQSITPCLALGGELVYHRRPGEEGTVMSLAGKYTLNNWLATVTLGQAGMHATYYHKASDQLQVGVEFEASTRMQDTSVSFGYQLDLPKANLLFKGSVDSNWIVGATLEKKLPPLPLTLALGAFLNHRKNKFQCGFGLTIG
modifications: myristoylated (the paper: 'is itself also myristoylated')
notes: TOMM40, endogenous in HEK293 cells, detected with a TOMM40 antibody; source: endogenous, HEK293 lysate
[1]
  co-immunoprecipitated TOMM40, percent of WT FSP1: 22 % of WT FSP1
[2]
  co-immunoprecipitated TOMM40, percent of WT: 28 % of WT
